From patent US11912782B2, “BCMA monoclonal antibody-drug conjugate” (MedImmune, LLC, priority 2017, dated 2024)
Residue numbers refer to the chain shown, from its start.

B1: I09-SG3249: ADC: optimized clone I09 conjugated to the PBD payload SG3249 (conjugate)
VH: EVQLVESGGGLVKPGGSLRLSCAASGFTFSSYSMNWVRQAPGKGLEWVSSISGSSNYIYYADSVKGRFTISRDNAKNSLYLQMNSLRAEDTAVYYCARGGNYFVEYFQQWGQGTLVTVSS
VL: EIVLTQSPGTLSLSPGERATLSCRASQYISSNYLAWYQQKPGQAPRLLIYGASNRATGIPDRFSGSGSGTDFTLTISRLEPEDFAVYYCQQYSSDPITFGQGTKLEIK
B2: L15: lead optimized clone of 15B2GL; VH SEQ ID NO: 13, VL SEQ ID NO: 14 (antibody, V domains shown)
VH: B1 VH with S54Q, Q109Y
VL: B1 VL with Y33N, S93A, S94D, D95S
B3: I09: lead optimized clone of 15B2GL; VH SEQ ID NO: 11, VL SEQ ID NO: 12 (antibody, V domains shown)
VH: B1 VH
VL: B1 VL
B4: N22: lead optimized clone of 15B2GL; VH SEQ ID NO: 17, VL SEQ ID NO: 18 (antibody, V domains shown)
VH: B1 VH with Q109Y
VL: B1 VL with D95S
B5: M02: lead optimized clone of 15B2GL; VH SEQ ID NO: 15, VL SEQ ID NO: 16 (antibody, V domains shown)
VH: B1 VH with S54Q, F103Y, Q109Y
VL: B1 VL with Y33N
B6: P10: lead optimized clone of 15B2GL; VH SEQ ID NO: 19, VL SEQ ID NO: 20 (antibody, V domains shown)
VH: B1 VH with S30R, S54Q, F103Y, Q109Y
VL: B1 VL with S93T, S94D, D95S

What was measured:
[1] = system: MM.1S cells; assay: Cell killing in the presence of soluble BCMA (conditioned media from Ad293 cells expressing human BCMA); format: cell-based
Description: Killing of multiple myeloma and plasma cell leukemia cell lines by antibody-drug conjugates comprising 15B2GL, or affinity-optimized clones thereof, conjugated to SG3249 was evaluated in vitro using the protocol recommended in the CELLTITER-GLO® kit (Promega, Madison, Wis.). Killing of multiple myeloma and plasma cell leukemia cell lines by the free warhead SG3199 also was evaluated using the protocol recommended in the CELLTITER-GLO® kit (Promega, Madison, Wis.). Briefly, 5×10^3 cells in 80 μL RPMI+10% FBS were added to the inner wells of white-walled 96-well plates (Corning® Costar®, Fisher Scientific, Waltham, Mass.). The following BCMA-expressing cell lines were tested: NCI-H929, EJM, MM.1R. JJN3, OPM-2, MM.1S, U266.B1, and L363. BMCA-negative cell lines Raji and Jurkat also were tested. The antibody-drug conjugates were diluted to a 5× stock (2.5 μg/mL) in RPMI+10% FBS. Treatments were then serially diluted 1:3 in RPMI+10% FBS. 20 μL of this series was added to the cells in duplicate, resulting in a 12-point dose curve of antibody-drug conjugate ranging from 0.5 μg/mL at the highest concentration to 3×10^−[…] at the lowest. Isotype antibody-drug conjugate (IgG1-SG3249 and IgG1-mc-MMAF) and media-only controls also were included. Plates were incubated at 37° C., 5% CO2 for 96 hours. At the end of the incubation period, 100 μL of the Substrate Solution (Promega, Madison Wis.) was added to each well. Luminescence was measured using an EnVision™ Multilabel plate reader (Perkin Elmer, Waltham, Mass.). Data were analyzed and graphed using GraphPad Prism™ software (GraphPad Software, Inc., La Jolla, Calif.), and the half-maximal inhibitory concentration (IC50) was determined.
The ability of the 15B2GL-SG3249 ADC to kill multiple myeloma cells in vitro in the presence of soluble BCMA (sBCMA) as compared to the I09-5G3249 ADC was evaluated in MM.1S cells using the protocol described above, except that tested cell lines also were treated with BCMA-containing conditioned media collected from Ad293 cells expressing human BCMA (FIGS. 3A and 3B). 15B2GL-SG3249 ADC cell killing in the presence of sBCMA also was compared to ADCs comprising the anti-BCMA antibody J6M0, which is described in U.S. Pat. No. 9,273,141.

[2] = system: MM.1S xenograft; assay: MM.1S subcutaneous xenograft model (Example 9); format: in vivo, mouse; conditions: 3 mg/kg intravenous, observed for 85 days post tumor implantation
Excerpt: (§1) Subcutaneous xenograft mouse models of multiple myeloma and plasma cell leukemia were generated by implanting BCMA-expressing multiple myeloma or plasma cell leukemia cell lines (i.e., NCI-H929 and MM.1S) into female CB-17 SCID (C.B-17/IcrHsd-Prkdc-scid) mice using MATRIGEL™ (BD Biosciences, San Jose, Calif.). Once tumors reached approximately 200 mm^3 (NCI-H929 cells) or 180 mm^3 (MM.1S cells), mice were randomized based on tumor size and placed into dosing groups and treated with BCMA-targeting ADCs as described below.
Mice were treated with either a single intravenous dose of the ADCs IgG1-SG3400 or 15B2GL-SG3400 at 1 mg/kg or 3 mg/kg or dosed intravenously with J6M0-SG3400 at a dose of 1 mg/kg or 3 mg/kg. Control mice were left untreated.

[3] = system: JJN3 xenograft; assay: JJN3 subcutaneous xenograft model; format: in vivo, mouse; conditions: single intravenous dose 1 mg/kg, observed for 104 days post tumor implantation
Excerpt: as §1, with “(i.e., NCI-H929, JJN-3, MM.1S,” for “(i.e., NCI-H929”, “and MM.1R)” for “and MM.1S)”, “(C.B-17/IcrHsd-Prkdc-scid) or athymic nude (Foxn1^nu)” for “(C.B-17/IcrHsd-Prkdc-scid)”, “approximately 180” for “approximately 200”, “(NCI-H929 cells), 190 mm^3 (JJN3 cells), 160” for “(NCI-H929 cells) or 180”, “(MM.1S cells), or 175 mm^3 (MM.1R” for “(MM.1S”
Mice were treated with either a single intravenous dose of 15B2GL-SG3249, 109-SG3249, and L15-SG3249 ADCs at 1 mg/kg, or dosed intravenously with J6M0-mc-MMAF ADC weekly at a dose of 1 mg/kg for 3 weeks. Control mice were left untreated.

[4] = system: NCI-H929 xenograft; assay: NCI-H929 subcutaneous xenograft model (Example 5); format: in vivo, mouse; conditions: single intravenous dose 0.3 mg/kg, observed for 99 days post tumor implantation
Excerpt: as §1, with “(i.e., NCI-H929, JJN-3, MM.1S,” for “(i.e., NCI-H929”, “and MM.1R)” for “and MM.1S)”, “(C.B-17/IcrHsd-Prkdc-scid) or athymic nude (Foxn1^nu)” for “(C.B-17/IcrHsd-Prkdc-scid)”, “approximately 180” for “approximately 200”, “(NCI-H929 cells), 190 mm^3 (JJN3 cells), 160” for “(NCI-H929 cells) or 180”, “(MM.1S cells), or 175 mm^3 (MM.1R” for “(MM.1S”
Mice were treated with either a single intravenous dose of the ADCs 15B2GL-SG3249, I09-5G3249, L15-SG3249 at 0.3 mg/kg or dosed intravenously with J6M0-mc-MMAF weekly at a dose of 0.3 mg/kg for 2 weeks. Control mice were left untreated.

[5] = system: MM.1S xenograft; assay: MM.1S subcutaneous xenograft model (Example 5); format: in vivo, mouse; conditions: single intravenous dose 1 mg/kg, observed for 99 days post tumor implantation
Excerpt: as §1, with “(i.e., NCI-H929, JJN-3, MM.1S,” for “(i.e., NCI-H929”, “and MM.1R)” for “and MM.1S)”, “(C.B-17/IcrHsd-Prkdc-scid) or athymic nude (Foxn1^nu)” for “(C.B-17/IcrHsd-Prkdc-scid)”, “approximately 180” for “approximately 200”, “(NCI-H929 cells), 190 mm^3 (JJN3 cells), 160” for “(NCI-H929 cells) or 180”, “(MM.1S cells), or 175 mm^3 (MM.1R” for “(MM.1S”
Mice were treated with either a single intravenous dose of 15B2GL-SG3249, 109-SG3249, L15-SG3249 ADCs at 1 mg/kg or dosed intravenously with J6M0-mc-MMAF twice weekly at a dose of 1 mg/kg for 4 weeks. Control mice were left untreated.

[6] = biological target: T1, monomeric human sBCMA (Homo sapiens, UniProt Q02223); assay: Kinetics/affinity measurement by SPR (BioRad ProteOn XPR36), antibody captured by anti-Fc, sBCMA flowed over; format: binding; conditions: for Koff / Kon: sBCMA 100-6.25 nM; for Kd: unit inferred
T1 construct: is comprised of the entire extracellular domain of the molecule; purchased GenScript
T1 sequence (Q02223 1-54 limits assumed): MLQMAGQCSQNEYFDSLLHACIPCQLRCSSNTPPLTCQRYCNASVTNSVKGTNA
Description: The binding of 15B2GL monoclonal antibody and optimized clones I09, L15, P10, N22, and M02 (described in Example 1) was assessed using monomeric human sBCMA (GenScript, Piscataway, N.J.) using a ProteOn™ XPR36 instrument (Bio-Rad, Hercules, Calif.). The binding of J6M0 also was assessed for comparison. Standard amine coupling was used to immobilize 25 μg/ml anti-Fc polyclonal antibody (Jackson ImmunoResearch, West Grove, Pa.) prepared in 10 mM sodium acetate buffer (pH 4.5) to the surface of a ProteOn™ GLC biosensor chip (Bio-Rad, Hercules, Calif.) pre-activated with 20 mM EDAC (1-ethyl-3-(3-dimethylaminopropyl)carbodiimide hydrochloride) and 5 mM Sulfo-NHS (N-hydroxysulfosuccinimide) at a density of ˜200-600 resonance units (RU). 15B2GL, I09, L15, P10, N22, M02, and J6M0 were subsequently injected at a concentration of 1 μg/ml for capture by the immobilized anti-Fc polyclonal antibody. The sensorgram was recorded by flowing two-fold serial dilutions of sBCMA prepared in PBS (pH 7.4) with 0.005% (v/v) Tween®-20, ranging from 100-6.25 nM, over the captured surface for 150 seconds at 75 μL/minute with dissociation time of 600 seconds. ProteOn™ data analysis software was used to analyze the data.

Row | Molecule | Koff [6] | Kon [6] | Kd [6] [nM] | further results
1 | J6M0-SG3249: ADC comprising the anti-BCMA antibody J6M0 and SG3249 |  |  |  | IC50 ([1]; sBCMA 0 ng/mL): 0.004816 µg/mL; IC50 ([1]; sBCMA 75 ng/mL): 0.01283 µg/mL; Fold loss of potency ([1]; sBCMA 75 ng/mL vs 0): 2.66; IC50 ([1]; sBCMA 270 ng/mL): 0.03226 µg/mL; Fold loss of potency ([1]; sBCMA 270 ng/mL vs 0): 6.70; IC50 ([1]; sBCMA 720 ng/mL): 0.09292 µg/mL; Fold loss of potency ([1]; sBCMA 720 ng/mL vs 0): 19.29
2 | J6M0-SG3400: BCMA-targeting ADC of J6M0 with SG3400 |  |  |  | tumor regrowth [2]: no evidence of tumor regrowth
3 | B1 |  |  |  | tumor regrowth [3]: no evidence of tumor regrowth; tumor regrowth [4]: no evidence of tumor regrowth; tumor regrowth [5]: no evidence of tumor regrowth
4 | B2 | 3.86E−03 | 8.54E+05 | 4.51 | 
5 | B3 | 5.99E−03 | 6.09E+05 | 9.82 | 
6 | B4 | 8.73E−03 | 5.36E+05 | 16.3 | 
7 | B5 | 4.97E−03 | 4.99E+05 | 9.95 | 
8 | B6 | 3.73E−03 | 7.01E+05 | 5.32 | 
